According to the DeepSol protein solubility set:

Assay: soluble on expression in E. coli; label from the status in PepcDB or PDB records

Row | Sequence | soluble on expression in E. coli
1 | MSLATISKITVQKKAKQRYNVFIGKPGAERFAFSVDEAILVKYGLRKGLELDENEIKALIEADELKKTHHLALHYLSYRMRTEKEIRDYLKEKDRLDEHIEKTIVSLKAEKLIDDRAFAEAFARSKTAQTLIGPNKIRQQLLQKGVNAEAMAKALSPYQIKWQIDVLTAWLDKQERRAVNRRESNEQLKQKRTHQLLAKGFEYEAIQAALANREANEDNEWEALVYQGEKLLKSYVKKYNGRELTYKLKQALYRKGFALSKIDRFLQTEMEGEEGHHHHHH | soluble
2 | MSLATPDRLTIVNQYVDNVLTKAGDHYHGQSPTPLLADGVDPRTGKQMEWIFPDGRHAVLSNFSAQQNLMRVLVGLSNLSGNPSYKQRAEAIVKYHFQHYQDESGLLIWGGHRFVDLKTLQPEGPSEKEMVHELKNAYPYYDLMFSVDKDATARFIRGFWNAHVYDWKIMETSRHGKYGQKIGALWQSPFEQQPPFFATKGLSFLNAGNDLIYSASLLYKYNKEDGALVWAKRLAQQYVLPRDKATGLGVYQFTQALKRDETTDDADTHSKYGDRAQRQFGPEFGPTALEGNMMLKGRTSTIYSENALMQLQLGKDLGAEGKELLTWTTDGLKAFAKYAYNESDNTFRPMLANGKDLSNYVLPRDGYYGKKGTVIKPYPADNSFLLSYARAYTVLPDAELWRVARGIARAQGLGELGSAPGKDVKVDLATKNNDPYALFALLDLYQASKVKDYLSLAEKVGDNIISTRYQNGFFMAEPNRQYADVDTIEPYALLALEAAVRNQPQSVAPFLNGAGFTEGGYRMEDGSTRVSTRDNEIFLLNVGETLKPNNKKEGHHHHHH | soluble
3 | MSLATVLVTGATGFIGSHVVEALAPRHDVVGLASSVYPSPRDAVRHVRMTLPHPDLEELVATLRPDVVVHCAGVASVGLSMHSPGVDFQSGPPVVFQLFDAIRKAGLASKVVLLSSAAVYGNPQSLPVGEDAPRAPISPYGWHKGMCEDIAQEFHGTYGIRSAVLRIFSCYGAGLRKQLLWDAAHKLLEGAFVFDGTGDETRDFIHVRDVAAFVTRLVEGWPDGGCVVCNVASGEATRIADLLALLPEAFGLSGVVPVFTGRVRGGDPHHWRADISRARQMGLAPAVSLEEGVREYATWFFAVTGGEGHHHHHH | soluble
4 | MSLATVPTRSGSPRQLTTKQTGDAWEAQARRWLEGKGLRFIAANVNERGGEIDLIMREGRTTVFIEVRYRRSALYGGAAASVTRSKQHKLLQTARLWLARHNGSFDTVDCRFDVVAFTGNEVEWIKDAFNDHSEGHHHHHH | soluble
5 | MSLAVNLTEKTAEQLPDIDGIALYTAQAGVKKPGHTDLTLIAVAAGSTVGAVFTTNRFCAAPVHIAKSHLFDEDGVRALVINTGNANAGTGAQGRIDALAVCAAAARQIGCKPNQVLPFSTGVILEPLPADKIIAALPKMQPAFWNEAARAIMTTDTVPKAASREGKVGDKHTVRATGIAKGSGMIHPNMATMLGFIATDAKVSQPVLQLMTQEIADETFNTITVDGDTSTNDSFVIIATGKNSQSEIDNIADPRYAQLKELLCSLALELAQAIVRDGEGATKFITVRVENAKTRDEARQAAYAVARSPLVKTAFFASDPNLGRLLAAIGYAGVADLDTDLVEMYLDDILVAEHGGRAASYTEAQGQAVMSKAEITVRIKLHRGQAAATVYTCDLSHGYVSINADYRSEGHHHHHH | soluble
6 | MSLCAREPRVPADRLVAEMVPPPRFDSVRFGTYVPDPNQPSQSEAVRVLEDFAGGLGEAPGTGGGRRGFFGLGRGRAPKTPAGPRGVYLDGGYGVGKTHLLASLWHATPAEPSRKAFGTFVELTNLVGALGFQQTVQTLSGHRLLCIDEFELDDPGDTVLVSSLLARLVEAGVALAATSNTLPGKLGEGRFAAADFLREIQGLSAHFRALRIDGEDYRHRGLPEAPAPYSDEQVTRAARATEGASLDDFAALLDHLARVHPSRYGALTDGLTAVCLTGVHPVPDQSTALRLVVLADRLYDREVPVLASGLPFDRLFGEEMLKGGYRKKYFRAISRLTALARDAARLVDTAAAALEHHHHHH | not soluble
7 | MSLCGIAGWVSFERDLSTQRAVAETMTKTMALRGPDDEGLWLDRRAALGHRRLSIIDLEGGRQPMTADEDGRTLACLVYTGEVYNFRELRLELQGLGHAFRTRSDTEVVLRAYLQWGEAMLERLNGMYAFALWDAREQRLLLVRDRMGVKPLYYYPMPDGVLFGSEPKAILAHPEAERRVTAGGLREMLDLVKTPEAAAFAGMHEVRPGQVVTIDRGGLRKRRYWQLEAREHTDDLPTTIRTVRELLDDIVERQIIADVPLCTLLSGGLDSSVVTALAARSMRRQGKGTVRSFSVDFVKHGAAFEADYLRGSPDAPFVRDLAAHAGTEHREILLESRELADPRLRAAVLGAQDLPPAYWGDMLPSLYKLFEAIRAQSTVALSGESADEVFGGYRWFHDAAAVDGDAFPWLAGSSGAFFDGQSLIAPGLLRELDMPGFRRDSYAQALAEVPRLASDSTRERRMREISHMHLTRFVQALLDRKDRMSMAVGLEVRVPFCDHRLVEYVFNAPWSMKNFDGREKSLLRAAGKDVLPESIVRRVKSPYPATQDPAYEQALRQGLARVLDDSRSPALPLLDKAAAWKLLDRPFGKTSTSPERAGLEMALGLDEWLRHHQVSLDLEGHHHHHH | not soluble
8 | MSLCRWAAYHGTPIFLEDVISRPGHSLIAQSAHAEECKTATNGDGFGVAWYDARPEPGLYRDVYPAWSDPNLRAVAHHVRSGLFLSHVRASTGSCISRNNCHPFAARRWCFMHNGQVGGFEAFRKQADMAIADEFYTYRKGSTDSEVLFLLALSEGLEHDPHGALARAIARLEGLSRAHGTTPHMRLSAAFSDGQTLYAARYSSDHIAPSVYYRYSHARQGWAVVSEPLETDEGDWTELRPGRMLTIGAEGAAERDFAPADLGRAAEGHHHHHH | soluble
9 | MSLDASQGGEQQSFSWDNATVYFAITDRFHDGNPSNNQSYGRPQEDAWGQNIGTFHGGDLQGLTDKLNEGYFTELGINAIWITAPYEQVHGWVGGGSDGDFAHYAYHGYYALDYTMIDQNMGTVEDMREFVHTAHEQGIRVVLDVVMNHPGYNTIKDMHEYGFGNPGVSEHWTPGQGQNWHDVHQQINYEDAGAWRHWWGPWIRAGIAGYESCGNSEITMCLAGLPDFRTELTHSVGLPPLLETKWNQERQGGYEDWIVPAANDLRRDLGVAPADYIVKWLSAWVEEFGIDGFRVDTAKHVELSRWQQLKDAANEALWKWREENPEAPGANWTDDFWMVGEVWGHGVGRSEYFDHGFDSVINFTFQGEHGNGPAYRLDTMESTFSRYANAINTDSTFNVLSYLSQHDTQLYPRERLIDGGTYLMLLPGGVQVFYGDETARPFGPTGSDPHQGTRSSMNWDSVNEEVLHHWQKMGQFRSNHLAVGAGEHRQIAASPYTFSRTYVEGDVDDRVVVVVGASGETTIDVSSVFSDGQQVRDFYTGNVTVVENGHVTFPAHRNGVILIERAGDEGHHHHHH | soluble
10 | MSLDCFAPAVLGMPAFDRHATWQAMHATTHFIGRVGVAQVGLCAMNLALWDIQLKIEEVPLWRHLGPVKDRVKAYNTDGGWLTWTTAEVIDDMHHIINRGFDAVKMKLGRSDPMEDFQRVRAVRQAIGDDIKLMVDVNTVWDLETAIQWGKRLEELNVEWLEEPLHPFDVRSHAALAKAIRTPIAVGETVYTVYGFREYIAQEAAGVLQADVTKLSGIEEWLEVAAIGQTHGLQVIPHTNVQQNVHVQLAAATTNTPMIECCYESLFEIWENPVRVVDGFYTLPDVPGINGKLTETVLEKFRVSEGHHHHHH | soluble
11 | MSLDDAKLTASKEAKRIVIQSIQRVATETAIENSVTVFHIESDEIKGRIIGREGRNIRALEAATGVEIVVDDTPEAIVLSAFDPVRREIARLALHQLVTDGRIHPARIEEVVSKVRKQVEEEIIETGKRTTIDLGIHGLHPELIRIIGKMKYRSSYGQNLLQHARETANLCAVMASELGLNPKKAKRAGLLHDIGKVPDEEPELPHALLGMKLAEKYKEKPDICNAIGAHHDETEMTSLLAPIVQVCDAISGARPGARREIVEAYIKRLNDLEQLAMAYPGVTKTYAIQAGRELRVIVGADKIDDKQTESLSGEIAKKIQDEMTYPGQVKITVIRETRAVSFAKEGHHHHHH | not soluble
12 | MSLDDLQSIRESREIRIAMSGQYSPFSFANEQNQIVGFDASISEALAQRLGVKVSIVTTPFDGIIAGLLAKKYDAIIASMTITPERLRAVDFVGPYYHAGRTIVVKEDSPINSLADLKDVTVGVTLGDAHDKWARARGNLKVKTYKGLPEMLVDLEAGRLDALVMDSVPVLVAVKETGQKVRIITPPDSDGGVEGMGIALRKNNPELKAAMQQALNDMLADGSYEKISMKWIGKDIREGHHHHHH | soluble
13 | MSLDETPTIHILWINAGLSCDGDSVALTAAMQPSIEEIVLGVLPGLPKIAVHWPLIDFECGPVGGSDTFIEWFFKGERGEIDPFVLVVEGSIPNESIKPEGYWCGFGDNPETGQPITTSEWIDRLAPKALAVVAIGTCATYGGIHAMAGNPTGAMGVPDYLGWDWKSQAGIPIVCVPGCPIQPDNFSETLTYLLYQAAGAAPMIPLDDKLRPTWLFGATVHEGCDRAGYYEQGQFALTYDSPKCLVKLGCWGPVVKCNVPKRGWMNGIGGCPNVGGICIACTMPGFPDKFMPFMDEPPGAKVSSSASGAYGAVVRKLRTLTARTVDKEPKWRHTGDRITTGYREGHHHHHH | not soluble
14 | MSLDGGNSLFQLRKELYSTDNKLSSIDDDLSDRNTTEDLIMLPSSANSNFSSPYTSNNKYGNTKILTETEKYSVTKLSTDLSFLPGSNGNNNTIDTHHFEGLVDTALQKALVNDLDHIYIWNYNSIQKDTPICKISLHDDYSVLSSPPICLFTSSISSTNNDTANYNNNASGNINSGKFNNGICIINKKNSQFLYFEDISTINNLYTKLSKSKAHVLDLKLKDNENITSTINCEPSGIIIATSLGRVLFITIKDSTGKPKLELKQQLIKPQNSFFFRNLDSSKEIISLKKGPIVGKGERLLYITTRGGSLQIWQLSINSKSFKRLEINIYEHVLDSLQDLYPFAHGTLAFLDSHPIYSDTSSAHLTLASISNGNEIYYLMITVILDEKTNSFQIFSIYKLNTYFTKSTVDLNHKPQLFIPNALDSIVSPTLSVYVLFNNAVVMTQISSKLDSSFPLRRKWEDIIRFNKDVEIIGSGYSTDSIYVICKDMGVLKIASHSNNNQELELVSFVKSHIDQAVYFSTITSNEGHHHHHH | soluble
15 | MSLDIHCHILPEIDDGPSSLEESLVMAREAVKEGITKIIATPHHLHPSYNNKAAVVKEKVRKLNEAIQKENIPLEILPGQEVRISGDVMDGLVSGDILTLADQGKYLFVEFSSNHVSRYADKLFFQLLSQDIIPIIVHPERNHEFLKNPGLLYDLVNGGALTQITTSSLTGHLGKKIKKFTEQIIEADLTHFLASDAHNVTERTFRIREAFALVEKNYGSSKAYEFQENAELLVENQHVMGPPPQPIVKKKLLGIFEGHHHHHH | soluble
16 | MSLDIIIVGSGAGGLTTASNIKKHDKNAKVTVITSDNYIAYSPCAIPYVIGEEIADFESIIMHTPEDYKAKGIDVIVEAEVLDVVSDENKIIYKKDATETELKYDNLVLATGGTPFVPPIEGVTLGGVFKVRTIEDGRKITEWAKDTKNAVVAGAGAIGIEIAFGLKELGLDVTVVEMVPQVFPRALDPDMAETVQKYLEEQGIKVILEKPVGKIIGNDKVESVLVGEETIPAEMVIMSTGVRSNIELAKRAGCEIGRWAVLTNEKMQTSIPNIYAVGDCVEVIDAITMQNTLSPFGTTAVRQGKVAAKTIANIEAEIKPVLNSMVSKIGKLEIGGTGMTETAAKMNGIEIVLGYSKALTRARYYPGGKPIYIKMVADKNTKKIIGCQIISEERVAERVDAMSVAIFNGMTVEELANQEFCYAPPVSMVIDPIVFAAEDTLDKEGHHHHHH | soluble
17 | MSLDNKRIEELKEVLKSLNKIGITEELRKEALDIVKNINPIELSIAEQQLIEEGMNPQDLRHLCDIHMEVLKDELTKVKASTSKGHVLYTLIEEHDKILDFLKELEEVNSNIQKTENYDEAKDETHRLYNLAESILDAENHHQREEKVLFLEMEKREITGPTRIMKMEHDDLRAKKKELKMLSKSVDTMDFREFKSKVDEVSKYIIFNLRDHIFKENYILYPSALEAIKDKDMWDDMKRRCDEVGYCSFTFSNEGHHHHHH | soluble
